Measured values from article PMC5007091 (Molecular Biology of the Cell, 2016).

Molecular target: the molecule itself
Experiment: split reporter

B1: Cdc10 (natural protein)
chain: MDPLSSVQPASYVGFDTITNQIEHRLLKKGFQFNIMVVGQSGLGKSTLINTLFASHLIDSATGDDISALPVTKTTEMKISTHTLVEDRVRLNINVIDTPGFGDFIDNSKAWEPIVKYIKEQHSQYLRKELTAQRERFITDTRVHAILYFLQPNGKELSRLDVEALKRLTEIANVIPVIGKSDTLTLDERTEFRELIQNEFEKYNFKIYPYDSEELTDEELELNRSVRSIIPFAVVGSENEIEINGETFRGRKTRWSAINVEDINQCDFVYLREFLIRTHLQDLIETTSYIHYEGFRARQLIALKENANSRSSAHMSSNAIQR
  fluorescence at the bud neck, fold over the negative controls: > 20 fold
